The results in this text go back to US20210054062A1.

Broadly, the koff is the first-order rate constant of dissociation. In general, kon refers to the second-order rate constant of association. By Kd is commonly meant a measure of binding affinity in units of concentration.

Positions count from the first letter of the chain named.

The labels stand for the following.
B1: Anti-FAM19A5 antibody ("S5-SG") (antibody, V domains shown)
VH: AVTLDESGGGLQTPGGALRLSCKASGFTFSSYQMGWVRQAPGKGLEWVSAINKGGSDTSYGSAVKGRATISRDNGQSTLYLQMNSLRAEDTAVYFCAKGSASYITAATIDAWGHGTEVIVSS
VL: ALTQPSSVSANPGETARITCSGGASSGYGYGWYQQKPSSAPLTVIYKDSERPSDIPSRFSGSSSGSTHTLTISGVQAEDEAVYFCGNDDYSSDSGYVGVFGAGTTLTVL
B2: Reference anti-FAM19A5 antibody ("1-65") (antibody, V domains shown)
VH: AVTLDESGGGLQTPGGALSLVCKASGFTFSSYQMGWVRQAPGKGLEWVGVINKSGSDTSYGSAVKGRATISRDNGQSTVRLQLNNLRAEDTGTYFCAKGSASYITAATIDAWGHGTEVIVSS
VL: ALTQPSSVSANPGETVKITCSGGGSSGYGYGWYQQKSPSSAPLTVIYWNDKRPSDIPSRFSGSKSGSTHTLTITGVQAEDEAVYFCGNDDYSSDSGYVGVFGAGTTLTVL
B3: Anti-FAM19A5 antibody ("SS01-13-s5") (antibody, V domains shown)
VH: B1 VH with G54S
VL: B1 VL

Sequence of human FAM19A5-Fc protein (human), Q7Z5A7 (Q7Z5A7 44-132): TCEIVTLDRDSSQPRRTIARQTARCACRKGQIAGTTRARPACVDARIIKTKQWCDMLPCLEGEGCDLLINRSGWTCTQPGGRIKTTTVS

One experiment concerns the target human FAM19A5-Fc protein (human), Q7Z5A7. Nature of the experiment: cell-based or functional assay.
Molecule B1 returned an amount of phagocytosis (uptake of pHrodo Green E. coli BioParticles by BV2 cells) compared to the control group (PBS alone), about 10 hours after BioParticles of 89%.

For the molecule B2, the amount of phagocytosis (uptake of pHrodo Green E. coli BioParticles by BV2 cells) compared to the control group (PBS alone), about 10 hours after BioParticles worked out at 86%.

In the case of B3, the amount of phagocytosis (uptake of pHrodo Green E. coli BioParticles by BV2 cells) compared to the control group (PBS alone), about 10 hours after BioParticles worked out at 96%.

Another experiment deals with Recombinant human FAM19A5 protein (His-tagged) (human) (UniProt Q7Z5A7). Nature of the experiment: SPR (Biacore): FAM19A5 protein immobilised on the sensor chip, antibody injected at 1.1 to 90 nM in single cycle kinetics mode, 1:1 binding fit.
Sequence of Recombinant human FAM19A5 protein (His-tagged) (human) (Q7Z5A7 44-132): as above
For B1, the koff was determined as 0.00183 s⁻¹ and the on-rate (kon) was found to be 1.02e+06 M⁻¹ s⁻¹.

With B2, the koff was 0.000567 s⁻¹ and the kon came out at 1.64e+06 M⁻¹ s⁻¹.

Regarding B3, the koff worked out at 0.000822 s⁻¹ and the on-rate (kon) amounted to 373000 M⁻¹ s⁻¹.

A further experiment has the same target. Description: SPR, FAM19A5 immobilised on sensor chip, antibody as analyte, single cycle kinetics, 1:1 fit. On the technique in general: In SPR one partner is held on a chip, and binding of the other changes the refractive index at the surface.
For the molecule B1, the equilibrium dissociation constant (Kd) amounted to 1.8 nM.

As to B2, the Kd amounted to 0.345 nM.

B3: the dissociation constant (Kd) came out at 2.2 nM.
